Assay results reported in patent US12404607.

How the values were obtained:
Test in all cases: ELISA, antigen coated at 2 ug/mL
[1] = molecular target: CoV-2 RBD (N354D, D364Y) (SARS-CoV-2) (UniProt P0DTC2)
[2] = molecular target: CoV-2 RBD (V367F) (SARS-CoV-2) (UniProt P0DTC2)
[3] = molecular target: CoV-2 S (D614G) (SARS-CoV-2) (UniProt P0DTC2)
[4] = molecular target: CoV-2 RBD (N354D) (SARS-CoV-2) (UniProt P0DTC2)
[5] = molecular target: CoV-2 S (R683A, R685A) (SARS-CoV-2) (UniProt P0DTC2)
[6] = molecular target: CoV-2 RBD (W436R) (SARS-CoV-2) (UniProt P0DTC2)

Substance	EC50 [1]	EC50 [2]	EC50 [3]	EC50 [4]	EC50 [5]	EC50 [6]
SARS CoV-2 mAb [SAD-S35] (Acro Biosystems) (antibody)	0.05 µg/mL	0.04 µg/mL	0.03 µg/mL	0.04 µg/mL	0.05 µg/mL	0.04 µg/mL
rCIG (recombinant coronavirus-2 immune globulin; recombinant anti-coronavirus 19 hyperimmune gammaglobulin)	0.08 µg/mL	0.07 µg/mL	0.05 µg/mL	0.07 µg/mL	0.09 µg/mL	0.07 µg/mL
